Assay results from PMC3355655.

Substrate: O=P(O)(O)O[C@H]1[C@H](O)[C@@H](OP(=O)(O)O)[C@H](OP(=O)(O)O)[C@@H](OP(=O)(O)O)[C@H]1O
Test: purified protein
Details: Mg2+

B1: SHIP2 (SH2 (Src homology 2)-domain-containing inositol-phosphatase-2) (Homo sapiens) (protein)
chain: DEPDMISVFIGTWNMGSVPPPKNVTSWFTSKGLGKTLDEVTVTIPHDIYVFGTQENSVGDREWLDLLRGGLKELTDLDYRPIAMQSLWNIKVAVLVKPEHENRISHVSTSSVKTGIANTLGNKGAVGVSFMFNGTSFGFVNCHLTSGNEKTARRNQNYLDILRLLSLGDRQLNAFDISLRFTHLFWFGDLNYRLDMDIQEILNYISRKEFEPLLRVDQLNLEREKHKVFLRFSEEEISFPPTYRYERGSRDTYAWHKQKPTGVRTNVPSWCDRILWKSYPETHIICNSYGCTDDIVTSDHSPVFGTFEVGVTSQFISKKGLSKTSDQAYIEFESIEAIVKTASRTKFFIEFYSTCLEEYKKSFENDAQSSDNINFLKVQWSSRQLPTLKPILADIEYLQDQHLLLTVKSMDGYE
Km: 215 ± 28 µM
